Experimental data as given in the supplement of paper PMC12667976.

B1: library; numbered along this chain (parent)
chain: MATDAALRRLLRLHRTEIAVAVDSAFPLLHALADHDVVPEDKFQETLHLKEKEGCPQAFHALLSWLLTQDSTAILDFWRVLFKDYNLERYGRLQPILDSFPKDVDLSQPRKGRKPPAVPKALVPPPRLPTKRKASEEARAAAPAALTPRGTASPGSQLKAKPPKKPESSAEQQRLPLGNGIQTMSASVQRAVAMSSGDVPGARGAVEGILIQQVFESGGSKKCIQVGGEFYTPSKFEDSGSGKNKARSSSGPKPLVRAKGAQGAAPGGGEARLGQQGSVPAPLALPSDPQLHQKNEDECAVCRDGGELICCDGCPRAFHLACLSPPLREIPSGTWRCSSCLQATVQEVQPRAEEPRPQEPPVETPLPPGLRSAGEEVRGPPGEPLAGMDTTLVYKHLPAPPSAAPLPGLDSSALHPLLCVGPEGQQNLAPGARCGVCGDGTDVLRCTHCAAAFHWRCHFPAGTSRPGTGLRCRSCSGDVTPAPVEGVLAPSPARLAPGPAKDDTASHEPALHRDDLESLLSEHTFDGILQWAIQSMARPAAPFPS

Variants of: B1
Experiment: AIRE transcriptional activation functional score (insulin promoter-GFP; nonsense median 0, synonymous median 1) (normalised score); higher = higher AIRE activity (more reporter activation)
Settings: with insulin promoter-GFP reporter in HEK293
Experimental: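 Deep mutational scan of full-length human AIRE (codon-optimized cDNA, DT-POPCode NNN libraries over three regions) integrated at a Bxb1 landing pad in HEK293 cells carrying an insulin core promoter-GFP reporter at a Flp-In site. Cells were sorted for the top 10% GFP about 14 days after transfection. Variant frequency log-ratios (select vs non-select, TileSeq) were rescaled so that the nonsense median is 0 and the synonymous median is 1, then averaged over biological replicates.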

AIRE transcriptional activation functional score, by site and new letter:
R139: A -0.0134, M 1.04, Y 1.25, H 0.679, G 1.2, Q 1.35, I 1, L 1.19, E 0.912, W 1.54, N 0.522, C 0.377, F 1.51, K 1.37, D 0.568, T 0.641, V 0.965, S 0.893, P 0.0776
A138: Y 1.36, G 0.96, T 0.99, H 0.328, E 1.11, Q 0.334, K 0.889, W 1.66, F 1.13, N 0.5, C 1.51, S 0.847, P 0.857, R 1.19, D 0.727, I 1.06, M 2.84, L 1.27, V 1.1
K133: W -0.155, F -0.0481, V -0.175, D 0.12, Y -0.0322, R 1.43, E 0.0731, Q -0.167, T 0.351, P 0.469, S 0.436, I -0.178, L -0.0606, N -0.0115, C 0.0795, A -0.0211, M -0.0607, H 0.287, G 0.153
R127: I 0.611, D 0.358, Q 0.887, Y 0.503, V 0.801, F 0.897, T 0.335, W 0.912, P 0.804, E 0.317, G 0.421, M 1.1, S 0.869, N 1.09, K 0.758, A 0.314, C 0.833, H 0.326, L 0.607
L128: D -0.0224, M 1.32, F 1.43, A 1.19, K -0.124, S 0.817, E 0.0699, G 1.51, T 1.62, N 1.02, C 1.19, Q 0.496, V 1.12, I 1.19, Y 1.41, R 0.525, W 1.39, P 1.17, H 0.857
A134: G -0.0179, Q 1.1, W 0.124, C 1.35, V 1.34, E -0.378, M -0.832, N 1.63, P -0.0505, T -0.16, H 0.548, R 0.538, F 1.29, S 1.06, L 1.11, D 0.263, K -3.51, I 1.43, Y 0.952
P129: W -0.183, G 0.951, C 0.895, Y 0.0475, V 0.215, S 0.685, L 0.107, I 0.253, Q 0.651, F 0.395, D 0.0133, R 0.451, E -0.0453, M 0.564, K 1.07, T 1.17, H -0.142, A 0.717, N 0.901
E136: C 1.22, S 0.919, A 1.16, G 0.816, V 0.704, Y 1.32, T 0.767, I 0.792, L 0.669, N 0.529, R -0.203, H 1.15, Q 1.45, W 1, D 0.541, K -0.163, F 0.605, M 0.441, P 1.91
T130: W 1.39, A 1.78, Y 1.11, K 0.531, F 1.71, P 1.36, R 0.316, E 0.325, S 1.36, I 1.05, N 0.915, C 1.38, V 0.747, G 1.13, L 1.13, H 0.621, D 0.225
P124: I 1.71, M 1.48, K 0.627, C 1.15, Q 0.964, W 1.5, D 0.6, L 1.09, R 0.769, H 0.958, N 0.804, Y 1.81, E 0.934, S 1.08, F 1.35, G 1.27, V 1.65, T 0.68
E137: M 2.33, F 1.36, R 0.377, T 0.166, G 0.593, V 0.84, D 1.23, Y 1.71, C 0.524, Q -0.415, S 0.539, K 0.00389, L 0.822, A 1.36, W 1.59, N 0.174, I 0.97, P 1.18, H 0.409
K131: A 0.284, M 0.154, W -0.218, F 0.0637, G -0.226, C -0.0234, H 0.185, Y 0.0539, I -0.103, L -0.159, V 0.174, P 0.0359, S 0.0229, N 0.0453, D -0.154, R -0.372, T -0.293, Q -0.125, E 0.0987
R132: Q 0.308, N -0.47, S 0.00923, W 0.538, T -0.125, F -0.0252, K 0.0662, I -0.0777, G 0.129, L -0.017, V -0.3, C -0.0301, A 0.179, Y 0.288, E 0.0732, H 0.458, M 0.275, D 0.252, P -0.258
P126: F 0.304, K 1.08, Y -0.0102, G 1.42, T 0.134, H 0.139, C 0.317, A 0.621, S 0.0633, D 0.773, V 0.0693, E 0.762, L 0.122, I 0.105, R -0.0135, W 0.0843, M 0.141, Q -0.177, N 0.042
A140: R 1.14, K 0.768, F 1.71, D 1.07, G 1.12, E 1.36, N 0.714, Y 1.38, Q 0.908, T 1.12, L 1.13, V 1.35, W 1.46, C 0.626, H 1.37, M 0.337, S 1.02, P 1.56, I 1.46
P125: T 1.42, F 0.97, C 0.918, W 1.36, V 1.19, M 1.18, I 1.36, R 0.79, E 0.892, S 1.04, A 1.25, H 1.27, Q 0.768, L 1.24, Y 0.77, N 0.92, G 1.08, D 0.901, K 0.907
A141: R 1.02, P 0.97, I 0.758, L 1.36, H 1.12, C 0.959, F 1.77, N 0.447, G 1.28, Q 1.24, E 1.49, M 0.533, K 1.19, D 1.25
S135: M -0.155, I 1.2, K 1.43, Y 0.884, P 0.181, T 2.07, G -0.37, E 1.38, V 0.924, L 1.04, Q 1.13, A 2.31, F 1.13, W 1.79, D 1.56, C 0.747, H 1.48, N 0.753, R 0.761
